Reference: patent US20260258115A1 (MAPP BIOPHARMACEUTICAL, published 2026)
Numbering of substitutions follows the chain as printed.

B1: ADI-14594 (antibody, V domains shown)
VH: QVQLVQSGAEVKKPGASVKLSCKASGYTFTTYTINWVRQAPGQGLEWMGWISGYNGNTDYAQKLQGRFTMTTDTSTNTAYMELRSLTSDDTAVYYCAKGGGGSESYFDYWGQGTLVTVSS
VL: SYELTQPPSVSVAPGKTARISCGGNNIGSKSVHWYQQKPGQAPVLVIYYDRDRPSGIPERFSGSNSGNTATLTISRVEAGDEADYYCQLWDRSSDHPYVFGTGTKVTVL
B2: ADI-14405 (antibody, V domains shown)
VH: QVQLVQSGTEVKKPGASVKVSCKASGYTFTNYDISWVRQAPGQGLEWMGWISGSTGNTIYAQNLQGRLTMTTDTSTSTAYMELRSLRSDDTAIYYCARDNVGYASGNYFDYWGQGTLVTVSS
VL: SYVLTQPPSVSVAPGKTARIPCGGNNIGSKSVHWYQQRPGQAPVLVIYYDSVRPSGIPERFSGSNSGNTATLTISTVEAGDEADFYCQVWDSSRDHEVFGGGTKLTVL
notes: also called Ab 71
B3: ADI-14406 (antibody, V domains shown)
VH: QVQLVQSGAEVKKPGESLKISCKGSGYKFTNYWIAWVRQMPGKGLEWLGVIYPGASDITYSPSFQGQVTISADKSISTAYLQWSSLKASDTAIYYCARQGSITAMSYWGQGTMVTVSS
VL: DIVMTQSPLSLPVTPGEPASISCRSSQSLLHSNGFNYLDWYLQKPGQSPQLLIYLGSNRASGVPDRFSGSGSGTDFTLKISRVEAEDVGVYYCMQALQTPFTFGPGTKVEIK
notes: also called Ab 72
B4: ADI-20960 (antibody, V domains shown)
VH: QVQLQQWGAGVLKPSETLSLTCAVNGRSLSGHYWSWIRQTPGKGLEWIGEINNSGGTHYSPSLKSRVIISGDTAKNQLSLKLSSVTAADTAVYYCAKGSAEWYFDLWGRGTLVTVSS
VL: DIRVTQSPSTLSASVGDRVTITCRASQSVSTWLAWYQQKPGKPPSLLIFKASTLESGVPSRFSGSGSGTEFTLTISSLQPDDFATYYCQQYNTYSPWTFGPGTKVEIK
B5: ADI-14589 (antibody, V domains shown)
VH: QITLKESGPVLVKPSETLTLTCTVSGFSLSNAKMGVSWIRQPPGKALEWLAHIFSNDEKSYNTSLKNRLTISKDTSKSQVVLTMTNMDTVDTATYYCARINYYDSSGYYLANFDYWGQGTLVTVSS
VL: NIRLTQSPSSLSASVGDRVTITCRASQRIASYLNWYQQKPGHAPKLLIHAASSLQSGVPSRFSGSGSGTDFTLTINSLLPEDFATYYCQQSYSSPPHSSPPLTFGGGTKVEIK
B6: ADI-14416 (antibody, V domains shown)
VH: QVQLVQSGAEVKKPGESLKISCKGSGDTFSRNWIGWVRQMPGKGLEWMGIIWPGDSDTRYRQFFQGQQGQVIISVDKSISTAYLQWSSLKASDTATYYCATSPYGLGSYYEHWGQGTLVTVSS
VL: NFMLTQPHSLSDSPGKTVVISCTRSSGSIASNYVQWYQQRPGSAPTTVIYEDNQRPSGVPDRFSGSIDSSSNSASLTISGLKTEDEADYYCQSYDSSNPYVFGTGTKVTVL
notes: also called Ab 82
B7: ADI-14599 (antibody, V domains shown)
VH: EVQLVESGGGLVQPGRSLRLSCKTSGFTFGDYAMSWVRQAPGQGLDWVGFIRTKAYGGTTEYAASVKGRFTLSRDDSKSIAYLQMNSLKTEDTAVYYCKSGGQFDYWGRGTLVTVSS
VL: B6 VL with L10V, D12G, V19T, R24G, Y50C, S96R, P99Q, Y100E, T104G, V108L
B8: ADI-14607 (antibody, V domains shown)
VH: EVQLLESGGGVVQSGRSLRLSCAASGFTFNNYAMHWVRQAPGKGLEWVAVISFDGGNKFYGDSVQGRFTISRDNSKNTLYLQTNSLRPEDTAVYYCARDRWEIQIGLDIWGQGTTVTVSS
VL: SYVLTQPPSVSVSPGQTARITCSGDALARQNAYWYQQKPGQAPVLVMYRDTGRPSGIPERFSGSSSGTTVTLTISEVQAEDEADYYCQSADSSGAYVFGTGTKVTVL
B9: ADI-21053 (antibody, V domains shown)
VH: QVQLQESGPGLVKPSQTLSLTCTVSGVSISNSSGGYYWSWIRQHPGKGLEWIGYIYYSGSTYYNPSSGSTYYNPSLKSRVTVSVDTSKNQFSLKLTSVTAADTAVYYCARDIRGPHKHSLYNWFHPWGQGTLVTVSS
VL: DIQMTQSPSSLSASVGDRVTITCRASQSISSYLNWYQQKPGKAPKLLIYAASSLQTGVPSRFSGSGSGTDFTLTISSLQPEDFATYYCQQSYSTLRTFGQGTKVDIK
B10: ADI-14590 (antibody, V domains shown)
VH: EVQLVESGAEVKKPGESLKISCKGSGYSFATYWIGWVRQMPGKGLEWMGIIYPGDSDTRYSPSFQGQVTISADKSISTAYLQWSSLKASDTAIYYCARAKLPVAGLYYFDYWGQGTLVTVSS
VL: DIQLTQSPSSLSASVGDRVTITCRASQGISSTLAWYQQKPGKAPKLLIYDASSLESGVPSRFSGSGSGTDFTLTISSLHPEDFATYYCQQFNTYPTFGGGTKVEIK
B11: ADI-14421 (antibody, V domains shown)
VH: QVQLVQSGAEVKKPGESLKISCKGSGYNSSINWIGYWIGWVRQMPGKGLEWMGIINPGDSDTRYSPSFQGQVTISVDKSISTAYLQWGSLKASDTAMYYCARRAYRSGWHFDLWGRGTLVTVSS
VL: EIVMTQSPATLSVSPGERATLTCRASQSVSSNLAWYQQKPGQAPRLLIYGASTRATGIPARFSGSGSGTQFTLTISSLQSEDFAVYYCQHYNNWPPYTFGQGTKVEIK
notes: also called Ab 87
B12: ADI-14573 (antibody, V domains shown)
VH: QVQLVQSGAEVKKPGASVKVSCKASGYTFTTYGISWVRQAPGQGLEWMGWISTYKTYTNYAQKFQGRVTMTTDTSTSTAYMELRSLRSDDTAVYYCAKVAGGSGSYGDYWGQGTLVTVSS
VL: QPVLTQPPSVSVAPGKTARITCGGNNIGSKSVHWYLQKPGQAPVLVIYYDSDRPSGIPERFSGSNSGNTATLTISRVEAGDEADFFCQVWDSSSDHWVFGGGTKVTVL
B13: ADI-21040 (antibody, V domains shown)
VH: EVQLLESGPGLVKPSGTPSLTCAVSGVSITNSNNWWTWVRQPPGKGLEWIGEIYSSGSTNYSPSLKSRVTISLDKSKNQFSLKLSSVTAADTAVYYCARVLGYYGSGGGHLHSWGPGTLVTVSS
VL: SYELTQPPSASGTPGQRVTISCSGSSSNIGAGYDVHWYQQLPGTAPKLLISVNSNRPSGVPDRFSGSKSGTSASLAITGLQAEDEANYYCQSYDNSLSGYVVFGGGTKLTVL
B14: ADI-14425 (antibody, V domains shown)
VH: QVQLQESGPGLVKPSETLSLTCTVSGGSVRSGSYYWSWIRQPPGKALEWIGYIYYSGSTNYNPALESRVTISVDTSKNQFSLMLSSVTAADTAVYYCARSAEGLARLYYFDHWGQGTLVTVSS
VL: QSVLIQPASVSGSPGQSITISCTGTSSDVGGYNYVSWYQQHPGKAPKLMIHDVSNRPSGVSNRFSGSKSGNTASLTISGLQAEDEADYYCSTYRSSNTLVVFGGGTKLTVL
notes: also called Ab 91
B15: ADI-14418 (antibody, V domains shown)
VH: QVQLVQSGAEVKKPGSSVKVSCKASGGTFTNYNINWVRQAPGQGLQWMGRISPTFAIANYAQKFQGRVTITADKSTSTAYMELSSLRSEDTAVYYCARAPHSGYDLALDYWGQGTLVTVSS
VL: DIQMTQSPSTLSASVGDRVTITCRASQSISSWLAWYQQKPGKAPKLLIYEASSLQSGVPSRFSGSGSGTEFTLTITSLQPDDFATYYCQQYNVYPWTFGQGTKVDIK
notes: also called Ab 84
B16: ADI-14393 (antibody, V domains shown)
VH: QVQLVESGGGLVKPGGSLRLSCAASGFSFTGFYMNWVRQAPGKGLEWVSSISSSSTYKNYADSLQGRFTISRDNARSSLYLQMNSLRAEDTAVYYCARTRTEYTYGYYHDFWGQGTLVTVSS
VL: QPVLTQPPSVSGAPGQRVTISCTGSSSNIGAGYDVHWYQQVPGTAPKLLIYNNNNRPSGVPDRFSGSKSGTSASLAITGLQAEDEADYYCQSYDSRLSGVFGGGTKLTVL
notes: also called Ab 60
B17: ADI-14595 (antibody, V domains shown)
VH: EVQLLESGGGLVQPGGSLRLSCAASGFTFSIYSMNWVRQAPGKGLEWISYISRSGSTIFYADSVKGRFTISRDDAKNSLFLQMTSLRDADTAVYYCARVDCSNNKCYDYWGQGTLVTVSS
VL: DIQLTQSPATLSLSPGERATLSCRASQSISSFLAWYQQKPGQAPRLLIYDASKRATGTPARFSGGGSGRDFTLTISSLEPEDFAVYYCQQRSSWPLYTFGQGTKVEIK
B18: ADI-14592 (antibody, V domains shown)
VH: QVQLVQSGAEVKKPGESLKISCKGSGYTFTNYWIGWVRQMPGKGLEWMGIIYPDDSDTRYSPSFQGQVTISVDKSINTAYLQWSSLRASDTAIYYCACSNWPHYFDSWGQGTLVTVSS
VL: NFMLTQPHSVSESPGKTVTISCTRSSGNIAGNYVQWYQQRPGSAPTTVIYEDNQRPSGVPDRFSGSIDSSSNSASLTISGLKTEDEAVYYCQSYHPGNWVFGGGTKLTVL
B19: ADI-14593 (antibody, V domains shown)
VH: QVQLVQSGAEVKKPGESLKISCKGSGYSFSSYWVAWVRQMPGKGLEWMGIIYPADSDTRYSPSFQGQVTISADKSDSTAYLQWGSLKASDTAMYYCARSLYGSGDYFDYWGQGTLVTVSS
VL: B18 VL with K16R, T19I, N28S, G31T, V88D, H95G, P96S, N98D, W99V, L107V

What follows are binders tested against T1, RSV postfusion F (postF), subtype B (respiratory syncytial virus, subtype B) (assay: BLI, IgG).
T1 construct: also called F ΔFP; Postfusion subtype B

| Binder | Kd |
| --- | --- |
| B1 | 0.214 nM |
| B2 | 38 nM |
| B3 | 0.473 nM |
| B4 | 0.163 nM |
| B5 | 15.4 nM |
| B6 | 0.106 nM |
| B7 | 0.358 nM |
| B8 | 0.227 nM |
| B9 | 118 nM |
| B10 | 0.967 nM |
| B11 | 0.74 nM |
| B12 | 3.55 nM |
| B13 | 1.03 nM |
| B14 | 9.34 nM |
| B15 | 0.258 nM |
| B16 | 11.7 nM |
| B17 | 14.4 nM |
| B18 | 0.0932 nM |
| B19 | 0.108 nM |

Each binder was assayed against RSV prefusion F (preF), subtype A (respiratory syncytial virus, subtype A, UniProt P03420 26-513) (assay: BLI, IgG).

| Binder | binding result | Kd |
| --- | --- | --- |
| B1 | no binding |  |
| B2 |  | 0.142 nM |
| B3 |  | 6.85 nM |
| B4 |  | 0.22 nM |
| B5 |  | 6.48 nM |
| B6 |  | 2.39 nM |
| B7 |  | 0.102 nM |
| B8 |  | 1.7 nM |
| B9 |  | 71 nM |
| B10 |  | 13.2 nM |
| B11 | no binding |  |
| B12 | no binding |  |
| B13 | no binding |  |
| B14 |  | 48.1 nM |
| B15 |  | 1.25 nM |
| B16 |  | 0.311 nM |
| B17 |  | 2.19 nM |
| B18 |  | 2.4 nM |
| B19 |  | 2.33 nM |

Each binder was assayed against T2, RSV postfusion F (postF), subtype A (respiratory syncytial virus, subtype A, UniProt P03420 26-513) (assay: BLI, IgG).
T2 construct: also called F ΔFP; Postfusion subtype A

| Binder | Kd | binding result |
| --- | --- | --- |
| B1 | 0.257 nM |  |
| B2 | 11.7 nM |  |
| B3 | 0.339 nM |  |
| B4 | 0.163 nM |  |
| B5 | 0.596 nM |  |
| B6 | 0.182 nM |  |
| B7 | 0.636 nM |  |
| B8 | 0.381 nM |  |
| B9 | 6.37 nM |  |
| B10 | 2.68 nM |  |
| B11 | 1.07 nM |  |
| B12 | 0.373 nM |  |
| B13 | 0.777 nM |  |
| B14 | 0.742 nM |  |
| B15 | 0.441 nM |  |
| B16 |  | no binding |
| B17 | 1.3 nM |  |
| B18 | 0.136 nM |  |
| B19 | 0.161 nM |  |

What follows are binders tested against RSV prefusion F (preF), subtype B (respiratory syncytial virus, subtype B) (assay: BLI, IgG).

| Binder | Kd |
| --- | --- |
| B1 | 18.2 nM |
| B2 | 0.227 nM |
| B3 | 0.906 nM |
| B4 | 0.23 nM |
| B5 | 28.2 nM |
| B6 | 0.369 nM |
| B7 | 0.622 nM |
| B8 | 0.64 nM |
| B10 | 5.99 nM |
| B11 | 2.82 nM |
| B12 | 21 nM |
| B14 | 20.3 nM |
| B15 | 1.58 nM |
| B16 | 0.474 nM |
| B17 | 16 nM |
| B18 | 0.301 nM |
| B19 | 0.358 nM |
